Measurements taken from ChEMBL document CHEMBL1156055, “Synthetic substrate for application in both high and low throughput assays for botulinum neurotoxin B protease inhibitors” (Bioorg Med Chem Lett, 2009).

Substrate: COc1ccc2c(CC(=O)NCCCC[C@H](NC(=O)CNC(=O)[C@H](C)NC(=O)[C@H](CCC(N)=O)NC(=O)[C@H](CC(C)C)NC(=O)[C@H](C)NC(=O)[C@H](CC(=O)O)NC(=O)[C@H](C)NC(=O)[C@H](CCCNC(=N)N)NC(=O)[C@H](CC(=O)O)NC(=O)[C@H](CC(=O)O)NC(=O)[C@H](CC(C)C)NC(=O)[C@H](CCC(=O)O)NC(=O)[C@H](CO)NC(=O)[C@H](CC(C)C)NC(=O)[C@H](CCCCN)NC(=O)[C@H](CCC(N)=O)NC(=O)[C@H](CC(=O)O)NC(=O)[C@H](CCCNC(=N)N)NC(=O)[C@H](CCC(=O)O)NC(C)=O)C(=O)N[C@@H](CO)C(=O)N[C@@H](CCC(N)=O)C(=O)N[C@@H](CNc3ccc([N+](=O)[O-])cc3[N+](=O)[O-])C(=O)N[C@@H](CCC(=O)O)C(=O)N[C@@H](CO)C(=O)N[C@@H](CO)C(=O)N[C@@H](C)C(=O)N[C@@H](C)C(=O)N[C@@H](CCCCN)C(=O)N[C@@H](CC(C)C)C(=O)N[C@@H](CCCCN)C(=O)N[C@@H](CCCNC(=N)N)C(=O)N[C@@H](CCCCN)C(=O)N[C@@H](Cc3ccc(O)cc3)C(=O)N[C@@H](Cc3c[nH]c4ccccc34)C(=O)N[C@@H](Cc3c[nH]c4ccccc34)C(=O)N[C@@H](CCCCN)C(=O)N[C@@H](CC(N)=O)C(=O)N[C@@H](CC(C)C)C(=O)N[C@@H](CCCCN)C(N)=O)cc(=O)oc2c1
Assay: Activity at Clostridium botulinum BoNT/B protease

B1: Botulinum neurotoxin type B (Clostridium botulinum), P10844 (protein)
chain: MPVTINNFNYNDPIDNNNIIMMEPPFARGTGRYYKAFKITDRIWIIPERYTFGYKPEDFNKSSGIFNRDVCEYYDPDYLNTNDKKNIFLQTMIKLFNRIKSKPLGEKLLEMIINGIPYLGDRRVPLEEFNTNIASVTVNKLISNPGEVERKKGIFANLIIFGPGPVLNENETIDIGIQNHFASREGFGGIMQMKFCPEYVSVFNNVQENKGASIFNRRGYFSDPALILMHELIHVLHGLYGIKVDDLPIVPNEKKFFMQSTDAIQAEELYTFGGQDPSIITPSTDKSIYDKVLQNFRGIVDRLNKVLVCISDPNININIYKNKFKDKYKFVEDSEGKYSIDVESFDKLYKSLMFGFTETNIAENYKIKTRASYFSDSLPPVKIKNLLDNEIYTIEEGFNISDKDMEKEYRGQNKAINKQAYEEISKEHLAVYKIQMCKSVKAPGICIDVDNEDLFFIADKNSFSDDLSKNERIEYNTQSNYIENDFPINELILDTDLISKIELPSENTESLTDFNVDVPVYEKQPAIKKIFTDENTIFQYLYSQTFPLDIRDISLTSSFDDALLFSNKVYSFFSMDYIKTANKVVEAGLFAGWVKQIVNDFVIEANKSNTMDKIADISLIVPYIGLALNVGNETAKGNFENAFEIAGASILLEFIPELLIPVVGAFLLESYIDNKNKIIKTIDNALTKRNEKWSDMYGLIVAQWLSTVNTQFYTIKEGMYKALNYQAQALEEIIKYRYNIYSEKEKSNINIDFNDINSKLNEGINQAIDNINNFINGCSVSYLMKKMIPLAVEKLLDFDNTLKKNLLNYIDENKLYLIGSAEYEKSKVNKYLKTIMPFDLSIYTNDTILIEMFNKYNSEILNNIILNLRYKDNNLIDLSGYGAKVEVYDGVELNDKNQFKLTSSANSKIRVTQNQNIIFNSVFLDFSVSFWIRIPKYKNDGIQNYIHNEYTIINCMKNNSGWKISIRGNRIIWTLIDINGKTKSVFFEYNIREDISEYINRWFFVTITNNLNNAKIYINGKLESNTDIKDIREVIANGEIIFKLDGDIDRTQFIWMKYFSIFNTELSQSNIEERYKIQSYSEYLKDFWGNPLMYNKEYYMFNAGNKNSYIKLKKDSPVGEILTRSKYNQNSKYINYRDLYIGEKFIIRRKSNSQSINDDIVRKEDYIYLDFFNLNQEWRVYTYKYFKKEEEKLFLAPISDSDEFYNTIQIKEYDEQPTYSCQLLFKKDEESTDEIGLIGIHRFYESGIVFEEYKDYFCISKWYLKEVKRKPYNLKLGCNWQFIPKDEGWTE
Work on B1 yielded a Km of 70.9 µM and a kcat of 3.81 s⁻¹.
